Measured values reported in patent US20260242735A1 (UNIVERSIT T BASEL, published 2026).

B1: Refmab #6 (antibody, V domains shown)
VH: QVQLQQPGAEVVKPGASVKMSCKASGYTFTSYYIHWIKQTPGQGLEWVGVIYPGNDDISYNQKFQGKATLTADKSSTTAYMQLSSLTSEDSAVYYCAREVRLRYFDVWGQGTTVTVSS
VL: EIVLTQSPGSLAVSPGERVTMSCKSSQSVFFSSSQKNYLAWYQQIPGQSPRLLIYWASTRESGVPDRFTGSGSGTDFTLTISSVQPEDLAIYYCHQYLSSRTFGQGTKLEIK
notes: Full-length format is human IgG1 Fc silent (PG-LALA); also made as Fab; The alanine scan used IgG or Fab
B2: Refmab #6 (antibody, V domains shown)
VH: B1 VH
VL: B1 VL
notes: The alanine scan used IgG or Fab
B3: Refmab #5 (antibody, V domains shown)
VH: QVQLVQSGAEVKKPGASVKVSCKASGYTFTNYDINWVRQAPGQGLEWIGWIYPGDGSTKYNEKFKAKATLTADTSTSTAYMELRSLRSDDTAVYYCASGYEDAMDYWGQGTTVTVSS
VL: DIQMTQSPSSLSASVGDRVTINCKASQDINSYLSWFQQKPGKAPKTLIYRANRLVDGVPSRFSGSGSGQDYTLTISSLQPEDFATYYCLQYDEFPLTFGGGTKVEIK
notes: as for B1
B4: Refmab #5 (antibody, V domains shown)
VH: B3 VH
VL: B3 VL
notes: as for B2

Columns and labels:
Test in all cases: alanine scan, flow cytometry, HEK293-T;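 also: antibody binding to each alanine-substituted CD33 mutant expressed transiently in HEK293-T, read as fluorescence minus background, mean of duplicates, relative to wild-type CD33 set as 100%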
human CD33 Y50A = human CD33 Y50A (human, UniProt P20138 18-364)
Sequence of human CD33 Y50A (P20138 18-364 Y50A limits assumed): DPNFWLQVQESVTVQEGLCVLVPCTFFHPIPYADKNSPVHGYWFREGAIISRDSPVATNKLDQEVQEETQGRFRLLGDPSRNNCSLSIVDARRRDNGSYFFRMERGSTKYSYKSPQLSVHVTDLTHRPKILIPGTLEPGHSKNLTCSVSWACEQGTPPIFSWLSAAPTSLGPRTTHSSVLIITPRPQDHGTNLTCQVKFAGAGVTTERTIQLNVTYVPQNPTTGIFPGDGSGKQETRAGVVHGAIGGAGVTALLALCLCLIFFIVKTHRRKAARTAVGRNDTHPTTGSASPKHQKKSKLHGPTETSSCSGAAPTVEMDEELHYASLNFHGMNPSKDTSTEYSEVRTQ

human CD33 G58A = human CD33 G58A (human, UniProt P20138 18-364)
Sequence of human CD33 G58A (P20138 18-364 G58A limits assumed): as the sequence (P20138 18-364 Y50A limits assumed) above, with A33Y, G41A counted along it

human CD33 Y59A = human CD33 Y59A (human, UniProt P20138 18-364)
Sequence of human CD33 Y59A (P20138 18-364 Y59A limits assumed): as the sequence (P20138 18-364 Y50A limits assumed) above, with A33Y, Y42A counted along it

human CD33 G64A = human CD33 G64A (human, UniProt P20138 18-364)
Sequence of human CD33 G64A (P20138 18-364 G64A limits assumed): as the sequence (P20138 18-364 Y50A limits assumed) above, with A33Y, G47A counted along it

human CD33 I67A = human CD33 I67A (human, UniProt P20138 18-364)
Sequence of human CD33 I67A (P20138 18-364 I67A limits assumed): as the sequence (P20138 18-364 Y50A limits assumed) above, with A33Y, I50A counted along it

human CD33 R69A = human CD33 R69A (human, UniProt P20138 18-364)
Sequence of human CD33 R69A (P20138 18-364 R69A limits assumed): as the sequence (P20138 18-364 Y50A limits assumed) above, with A33Y, R52A counted along it

human CD33 D79A = human CD33 D79A (human, UniProt P20138 18-364)
Sequence of human CD33 D79A (P20138 18-364 D79A limits assumed): as the sequence (P20138 18-364 Y50A limits assumed) above, with A33Y, D62A counted along it

human CD33 Q83A = human CD33 Q83A (human, UniProt P20138 18-364)
Sequence of human CD33 Q83A (P20138 18-364 Q83A limits assumed): as the sequence (P20138 18-364 Y50A limits assumed) above, with A33Y, Q66A counted along it

human CD33 D95A = human CD33 D95A (human, UniProt P20138 18-364)
Sequence of human CD33 D95A (P20138 18-364 D95A limits assumed): as the sequence (P20138 18-364 Y50A limits assumed) above, with A33Y, D78A counted along it

human CD33 S97A = human CD33 S97A (human, UniProt P20138 18-364)
Sequence of human CD33 S97A (P20138 18-364 S97A limits assumed): as the sequence (P20138 18-364 Y50A limits assumed) above, with A33Y, S80A counted along it

human CD33 R98A = human CD33 R98A (human, UniProt P20138 18-364)
Sequence of human CD33 R98A (P20138 18-364 R98A limits assumed): as the sequence (P20138 18-364 Y50A limits assumed) above, with A33Y, R81A counted along it

human CD33 N99A = human CD33 N99A (human, UniProt P20138 18-364)
Sequence of human CD33 N99A (P20138 18-364 N99A limits assumed): as the sequence (P20138 18-364 Y50A limits assumed) above, with A33Y, N82A counted along it

human CD33 S104A = human CD33 S104A (human, UniProt P20138 18-364)
Sequence of human CD33 S104A (P20138 18-364 S104A limits assumed): as the sequence (P20138 18-364 Y50A limits assumed) above, with A33Y, S87A counted along it

human CD33 G114A = human CD33 G114A (human, UniProt P20138 18-364)
Sequence of human CD33 G114A (P20138 18-364 G114A limits assumed): as the sequence (P20138 18-364 Y50A limits assumed) above, with A33Y, G97A counted along it

human CD33 S115A = human CD33 S115A (human, UniProt P20138 18-364)
Sequence of human CD33 S115A (P20138 18-364 S115A limits assumed): as the sequence (P20138 18-364 Y50A limits assumed) above, with A33Y, S98A counted along it

human CD33 F118A = human CD33 F118A (human, UniProt P20138 18-364)
Sequence of human CD33 F118A (P20138 18-364 F118A limits assumed): as the sequence (P20138 18-364 Y50A limits assumed) above, with A33Y, F101A counted along it

human CD33 M120A = human CD33 M120A (human, UniProt P20138 18-364)
Sequence of human CD33 M120A (P20138 18-364 M120A limits assumed): as the sequence (P20138 18-364 Y50A limits assumed) above, with A33Y, M103A counted along it

human CD33 S131A = target: T1, human CD33 S131A (human, UniProt P20138 18-364)
T1 construct: alanine scan clone, transfected HEK293-T
T1 sequence (P20138 18-364 S131A limits assumed): as the sequence (P20138 18-364 Y50A limits assumed) above, with A33Y, S114A counted along it

human CD33 S135A = target: T2, human CD33 S135A (human, UniProt P20138 18-364)
T2 construct: alanine scan clone, transfected HEK293-T
T2 sequence (P20138 18-364 S135A limits assumed): as the sequence (P20138 18-364 Y50A limits assumed) above, with A33Y, S118A counted along it

human CD33 V136A = target: T3, human CD33 V136A (human, UniProt P20138 18-364)
T3 construct: alanine scan clone, transfected HEK293-T
T3 sequence (P20138 18-364 V136A limits assumed): as the sequence (P20138 18-364 Y50A limits assumed) above, with A33Y, V119A counted along it

human CD33 T139A = target: T4, human CD33 T139A (human, UniProt P20138 18-364)
T4 construct: alanine scan clone, transfected HEK293-T
T4 sequence (P20138 18-364 T139A limits assumed): as the sequence (P20138 18-364 Y50A limits assumed) above, with A33Y, T122A counted along it

human CD33 R144A = target: T5, human CD33 R144A (human, UniProt P20138 18-364)
T5 construct: alanine scan clone, transfected HEK293-T
T5 sequence (P20138 18-364 R144A limits assumed): as the sequence (P20138 18-364 Y50A limits assumed) above, with A33Y, R127A counted along it

human CD33 I147A = target: T6, human CD33 I147A (human, UniProt P20138 18-364)
T6 construct: alanine scan clone, transfected HEK293-T
T6 sequence (P20138 18-364 I147A limits assumed): as the sequence (P20138 18-364 Y50A limits assumed) above, with A33Y, I130A counted along it

human CD33 L148A = target: T7, human CD33 L148A (human, UniProt P20138 18-364)
T7 construct: alanine scan clone, transfected HEK293-T
T7 sequence (P20138 18-364 L148A limits assumed): as the sequence (P20138 18-364 Y50A limits assumed) above, with A33Y, L131A counted along it

human CD33 P155A = target: T8, human CD33 P155A (human, UniProt P20138 18-364)
T8 construct: alanine scan clone, transfected HEK293-T
T8 sequence (P20138 18-364 P155A limits assumed): as the sequence (P20138 18-364 Y50A limits assumed) above, with A33Y, P138A counted along it

human CD33 G156A = target: T9, human CD33 G156A (human, UniProt P20138 18-364)
T9 construct: alanine scan clone, transfected HEK293-T
T9 sequence (P20138 18-364 G156A limits assumed): as the sequence (P20138 18-364 Y50A limits assumed) above, with A33Y, G139A counted along it

human CD33 H157A = target: T10, human CD33 H157A (human, UniProt P20138 18-364)
T10 construct: alanine scan clone, transfected HEK293-T
T10 sequence (P20138 18-364 H157A limits assumed): as the sequence (P20138 18-364 Y50A limits assumed) above, with A33Y, H140A counted along it

human CD33 S158A = target: T11, human CD33 S158A (human, UniProt P20138 18-364)
T11 construct: alanine scan clone, transfected HEK293-T
T11 sequence (P20138 18-364 S158A limits assumed): as the sequence (P20138 18-364 Y50A limits assumed) above, with A33Y, S141A counted along it

human CD33 L161A = target: T12, human CD33 L161A (human, UniProt P20138 18-364)
T12 construct: alanine scan clone, transfected HEK293-T
T12 sequence (P20138 18-364 L161A limits assumed): as the sequence (P20138 18-364 Y50A limits assumed) above, with A33Y, L144A counted along it

human CD33 S164A = target: T13, human CD33 S164A (human, UniProt P20138 18-364)
T13 construct: alanine scan clone, transfected HEK293-T
T13 sequence (P20138 18-364 S164A limits assumed): as the sequence (P20138 18-364 Y50A limits assumed) above, with A33Y, S147A counted along it

human CD33 W167A = target: T14, human CD33 W167A (human, UniProt P20138 18-364)
T14 construct: alanine scan clone, transfected HEK293-T
T14 sequence (P20138 18-364 W167A limits assumed): as the sequence (P20138 18-364 Y50A limits assumed) above, with A33Y, W150A counted along it

human CD33 T173A = target: T15, human CD33 T173A (human, UniProt P20138 18-364)
T15 construct: alanine scan clone, transfected HEK293-T
T15 sequence (P20138 18-364 T173A limits assumed): as the sequence (P20138 18-364 Y50A limits assumed) above, with A33Y, T156A counted along it

human CD33 L180A = target: T16, human CD33 L180A (human, UniProt P20138 18-364)
T16 construct: alanine scan clone, transfected HEK293-T
T16 sequence (P20138 18-364 L180A limits assumed): as the sequence (P20138 18-364 Y50A limits assumed) above, with A33Y, L163A counted along it

human CD33 G123A = target: T17, human CD33 G123A (human, UniProt P20138 18-364)
T17 construct: alanine scan clone, transfected HEK293-T
T17 sequence (P20138 18-364 G123A limits assumed): as the sequence (P20138 18-364 Y50A limits assumed) above, with A33Y, G106A counted along it

human CD33 S124A = target: T18, human CD33 S124A (human, UniProt P20138 18-364)
T18 construct: alanine scan clone, transfected HEK293-T
T18 sequence (P20138 18-364 S124A limits assumed): as the sequence (P20138 18-364 Y50A limits assumed) above, with A33Y, S107A counted along it

human CD33 T125A = target: T19, human CD33 T125A (human, UniProt P20138 18-364)
T19 construct: alanine scan clone, transfected HEK293-T
T19 sequence (P20138 18-364 T125A limits assumed): as the sequence (P20138 18-364 Y50A limits assumed) above, with A33Y, T108A counted along it

Binder | Mean % WT Binding (human CD33 Y50A) | Mean % WT Binding (human CD33 G58A) | Mean % WT Binding (human CD33 Y59A) | Mean % WT Binding (human CD33 G64A) | Mean % WT Binding (human CD33 I67A) | Mean % WT Binding (human CD33 R69A) | Mean % WT Binding (human CD33 D79A) | Mean % WT Binding (human CD33 Q83A) | Mean % WT Binding (human CD33 D95A) | Mean % WT Binding (human CD33 S97A) | Mean % WT Binding (human CD33 R98A) | Mean % WT Binding (human CD33 N99A) | Mean % WT Binding (human CD33 S104A) | Mean % WT Binding (human CD33 G114A) | Mean % WT Binding (human CD33 S115A) | Mean % WT Binding (human CD33 F118A) | Mean % WT Binding (human CD33 M120A) | Mean % WT Binding (human CD33 S131A) | Mean % WT Binding (human CD33 S135A) | Mean % WT Binding (human CD33 V136A) | also measured
B1 | 113 % WT binding | 73.9 % WT binding | 83.2 % WT binding | 92.9 % WT binding | 108 % WT binding | 101 % WT binding | 78.2 % WT binding | 108 % WT binding | 86.3 % WT binding | 93.7 % WT binding | 94.2 % WT binding | 92 % WT binding | 90.9 % WT binding | 106 % WT binding | 75.8 % WT binding | 4.9 % WT binding | 76.3 % WT binding |  |  |  | 
B2 |  |  |  |  |  |  |  |  |  |  |  |  |  |  |  |  |  | 10.8 % WT binding | 110 % WT binding | 65.8 % WT binding | Mean % WT Binding (human CD33 T139A): 97.7 % WT binding; Mean % WT Binding (human CD33 R144A): 104 % WT binding; Mean % WT Binding (human CD33 I147A): 65.4 % WT binding; Mean % WT Binding (human CD33 L148A): 93.3 % WT binding; Mean % WT Binding (human CD33 P155A): 104 % WT binding; Mean % WT Binding (human CD33 G156A): 88.1 % WT binding; Mean % WT Binding (human CD33 H157A): 96.3 % WT binding; Mean % WT Binding (human CD33 S158A): 95.2 % WT binding; Mean % WT Binding (human CD33 L161A): 100 % WT binding; Mean % WT Binding (human CD33 S164A): 100 % WT binding; Mean % WT Binding (human CD33 W167A): 90.5 % WT binding; Mean % WT Binding (human CD33 T173A): 98.9 % WT binding; Mean % WT Binding (human CD33 L180A): 97.1 % WT binding; Mean % WT Binding (human CD33 G123A): 94.1 % WT binding; Mean % WT Binding (human CD33 S124A): 98.2 % WT binding; Mean % WT Binding (human CD33 T125A): 112 % WT binding
B3 | 55.7 % WT binding | 112 % WT binding | 205 % WT binding | 136 % WT binding | 157 % WT binding | 164 % WT binding | 91.3 % WT binding | 97 % WT binding | 122 % WT binding | 126 % WT binding | 134 % WT binding | 88.4 % WT binding | 109 % WT binding | 79 % WT binding | 74.6 % WT binding | 11.1 % WT binding | 73.2 % WT binding |  |  |  | 
B4 |  |  |  |  |  |  |  |  |  |  |  |  |  |  |  |  |  | 106 % WT binding | 108 % WT binding | 104 % WT binding | Mean % WT Binding (human CD33 T139A): 104 % WT binding; Mean % WT Binding (human CD33 R144A): 71 % WT binding; Mean % WT Binding (human CD33 I147A): 77.2 % WT binding; Mean % WT Binding (human CD33 L148A): 113 % WT binding; Mean % WT Binding (human CD33 P155A): 140 % WT binding; Mean % WT Binding (human CD33 G156A): 92.3 % WT binding; Mean % WT Binding (human CD33 H157A): 102 % WT binding; Mean % WT Binding (human CD33 S158A): 99.2 % WT binding; Mean % WT Binding (human CD33 L161A): 130 % WT binding; Mean % WT Binding (human CD33 S164A): 110 % WT binding; Mean % WT Binding (human CD33 W167A): 95.5 % WT binding; Mean % WT Binding (human CD33 T173A): 101 % WT binding; Mean % WT Binding (human CD33 L180A): 118 % WT binding; Mean % WT Binding (human CD33 G123A): 67.5 % WT binding; Mean % WT Binding (human CD33 S124A): 79.4 % WT binding; Mean % WT Binding (human CD33 T125A): 56.7 % WT binding
